According to patent publication US20210130436A1 (published 2021):
Changes are numbered by the printed parent chain. In names and notes the source's numbering stands.

T1: TIGIT (Homo sapiens (Human), UniProt Q495A1 22-244)
T1 sequence: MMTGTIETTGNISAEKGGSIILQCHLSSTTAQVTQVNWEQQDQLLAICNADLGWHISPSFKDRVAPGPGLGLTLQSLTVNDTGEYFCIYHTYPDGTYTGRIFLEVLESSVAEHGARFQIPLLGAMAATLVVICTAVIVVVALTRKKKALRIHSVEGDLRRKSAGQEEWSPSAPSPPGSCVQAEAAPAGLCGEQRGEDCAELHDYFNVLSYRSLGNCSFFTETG

T2: CD226 (Homo sapiens (Human), UniProt Q15762 19-336)
T2 sequence: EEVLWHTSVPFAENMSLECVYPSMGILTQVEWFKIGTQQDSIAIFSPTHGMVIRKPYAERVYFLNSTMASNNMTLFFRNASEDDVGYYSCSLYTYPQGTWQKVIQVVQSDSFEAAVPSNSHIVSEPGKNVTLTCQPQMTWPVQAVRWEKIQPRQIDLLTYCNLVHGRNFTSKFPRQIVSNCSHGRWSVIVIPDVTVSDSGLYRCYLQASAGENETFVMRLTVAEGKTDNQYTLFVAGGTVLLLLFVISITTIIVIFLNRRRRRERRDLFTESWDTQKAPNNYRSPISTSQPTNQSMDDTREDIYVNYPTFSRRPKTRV

T3: CD96 (UniProt P40200 22-585, limits assumed)
T3 construct: whole, on cells
T3 sequence (looked up): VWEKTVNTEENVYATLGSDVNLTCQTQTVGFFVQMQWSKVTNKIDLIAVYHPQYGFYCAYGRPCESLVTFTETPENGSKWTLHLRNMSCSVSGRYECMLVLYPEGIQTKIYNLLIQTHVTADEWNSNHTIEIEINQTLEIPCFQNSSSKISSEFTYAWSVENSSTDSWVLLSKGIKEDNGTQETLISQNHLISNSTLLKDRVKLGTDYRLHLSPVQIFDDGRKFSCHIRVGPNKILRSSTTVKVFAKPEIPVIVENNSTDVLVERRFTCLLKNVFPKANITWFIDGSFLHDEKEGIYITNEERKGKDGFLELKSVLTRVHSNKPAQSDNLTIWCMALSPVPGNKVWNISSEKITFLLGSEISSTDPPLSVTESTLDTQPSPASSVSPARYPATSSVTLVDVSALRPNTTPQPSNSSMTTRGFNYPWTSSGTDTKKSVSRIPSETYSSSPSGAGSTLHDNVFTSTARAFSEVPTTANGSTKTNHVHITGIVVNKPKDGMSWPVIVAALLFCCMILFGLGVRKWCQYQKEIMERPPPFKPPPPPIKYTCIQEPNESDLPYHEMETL

B1: variant CD80 IgV-Fc E35D/N48K/L72V (Fc fusion, not shown: a dimerising Fc or GST)
chain: VIHVTKEVKEVATLSCGHNVSVEELAQTRIYWQKDKKMVLTMMSGDMKIWPEYKNRTIFDITNNLSIVILAVRPSDEGTYECVVLKYEKDAFKREHLAEVTLSVKAD
B2: variant CD80 IgV-Fc E35D/M47V/I61V/L85M (Fc fusion, not shown: a dimerising Fc or GST)
chain: B1 chain with M47V, K48N, I61V, V72L, L85M
B3: variant CD80 IgV-Fc H18Y/E35D/M47V/N48K (Fc fusion, not shown: a dimerising Fc or GST)
chain: B1 chain with H18Y, M47V, V72L
B4: variant CD80 IgV-Fc E35D/L97R (Fc fusion, not shown: a dimerising Fc or GST)
chain: B1 chain with K48N, V72L, L97R
B5: variant CD80 IgV-Fc E35D/M43I/M47L/L85M (Fc fusion, not shown: a dimerising Fc or GST)
chain: B1 chain with M43I, M47L, K48N, V72L, L85M
B6: variant CD80 IgV-Fc E35D/M47V/N48K/L85M (Fc fusion, not shown: a dimerising Fc or GST)
chain: B1 chain with M47V, V72L, L85M
B7: variant CD80 IgV-Fc E35D/M47L/A71G (Fc fusion, not shown: a dimerising Fc or GST)
chain: B1 chain with M47L, K48N, A71G, V72L
B8: variant CD80 IgV-Fc Q33R/E35D/D46E/M47I (Fc fusion, not shown: a dimerising Fc or GST)
chain: B1 chain with Q33R, D46E, M47I, K48N, V72L
B9: variant CD80 IgV-Fc A26E/E35D/M43I/M47L/L85Q/K86E/R94W (Fc fusion, not shown: a dimerising Fc or GST)
chain: B1 chain with A26E, M43I, M47L, K48N, V72L, L85Q, K86E, R94W
B10: CD80 IgV-Fc T13R/E35D/M47L/V68M (Fc fusion, not shown: a dimerising Fc or GST)
chain: B1 chain with T13R, M47L, K48N, V68M, V72L
B11: CD80 IgV-Fc V22D/E24D/E35D/M47L/V68M/L85M/D90G (Fc fusion, not shown: a dimerising Fc or GST)
chain: B1 chain with V22D, E24D, M47L, K48N, V68M, V72L, L85M, D90G
B12: variant CD80 IgV-Fc E35D/M47V/L85M/R94Q (Fc fusion, not shown: a dimerising Fc or GST)
chain: B1 chain with M47V, K48N, V72L, L85M, R94Q
B13: variant CD80 IgV-Fc E35D/M47V/T62S/L85Q (Fc fusion, not shown: a dimerising Fc or GST)
chain: B1 chain with M47V, K48N, T62S, V72L, L85Q
B14: variant CD80 IgV-Fc Q33L/E35D/M47V/T79A (Fc fusion, not shown: a dimerising Fc or GST)
chain: B1 chain with Q33L, M47V, K48N, V72L, T79A
B15: variant CD80 IgV-Fc Q33L/E35D/M47V (Fc fusion, not shown: a dimerising Fc or GST)
chain: B1 chain with Q33L, M47V, K48N, V72L
B16: variant CD80 IgV-Fc E24D/Q33L/E35D/M47V/K54R/L85Q (Fc fusion, not shown: a dimerising Fc or GST)
chain: B1 chain with E24D, Q33L, M47V, K48N, K54R, V72L, L85Q
B17: variant CD155 IgV-Fc S52E (Fc fusion, not shown: a dimerising Fc or GST)
chain: WPPPGTGDVVVQAPTQVPGFLGDSVTLPCYLQVPNMEVTHVSQLTWARHGEEGSMAVFHQTQGPSYSESKRLEFVAARLGAELRNASLRMFGLRVEDEGNYTCLFVTFPQGSRSVDIWLRVL
B18: variant CD155 IgV-Fc S52M/Q62Y (Fc fusion, not shown: a dimerising Fc or GST)
chain: B17 chain with E52M, Q62Y
B19: variant CD155 IgV-Fc S52Q (Fc fusion, not shown: a dimerising Fc or GST)
chain: B17 chain with E52Q
B20: variant CD155 IgV-Fc S52R/Q62F/L104Q/G111R (Fc fusion, not shown: a dimerising Fc or GST)
chain: B17 chain with E52R, Q62F, L104Q, G111R
B21: variant CD155 IgV-Fc S52M (Fc fusion, not shown: a dimerising Fc or GST)
chain: B17 chain with E52M
B22: variant CD155 IgV-Fc T45Q/S52L/V57L/L104E (Fc fusion, not shown: a dimerising Fc or GST)
chain: B17 chain with T45Q, E52L, V57L, L104E
B23: variant CD155 IgV-Fc S52W (Fc fusion, not shown: a dimerising Fc or GST)
chain: B17 chain with E52W
B24: variant CD155 IgV-Fc S52M/L104Q (Fc fusion, not shown: a dimerising Fc or GST)
chain: B17 chain with E52M, L104Q
B25: variant CD155 IgV-Fc S52W/L104E (Fc fusion, not shown: a dimerising Fc or GST)
chain: B17 chain with E52W, L104E
B26: variant CD155 IgV-Fc T45Q/S52L/L104E/G111R (Fc fusion, not shown: a dimerising Fc or GST)
chain: B17 chain with T45Q, E52L, L104E, G111R
B27: WT CD80 ECD-Fc (Fc fusion, not shown: a dimerising Fc or GST)
chain: VIHVTKEVKEVATLSCGHNVSVEELAQTRIYWQKEKKMVLTMMSGDMNIWPEYKNRTIFDITNNLSIVILALRPSDEGTYECVVLKYEKDAFKREHLAEVTLSVKADFPTPSISDFEIPTSNIRRIICSTSGGFPEPHLSWLENGEELNAINTTVSQDPETELYAVSSKLDFNMTTNHSFMCLIKYGHLRVNQTFNWNTTKQEHFPDN
notes: Wild-type control

What follows are binders tested against T4, human PD-L1 on CHO cells (human, UniProt Q9NZQ7 19-290) (assay: flow cytometry, CHO cells stably expressing PD-L1).
T4 construct: whole, on cells; CHO cells stably expressing PD-L1; also called huPD-L1
T4 sequence (Q9NZQ7 19-290): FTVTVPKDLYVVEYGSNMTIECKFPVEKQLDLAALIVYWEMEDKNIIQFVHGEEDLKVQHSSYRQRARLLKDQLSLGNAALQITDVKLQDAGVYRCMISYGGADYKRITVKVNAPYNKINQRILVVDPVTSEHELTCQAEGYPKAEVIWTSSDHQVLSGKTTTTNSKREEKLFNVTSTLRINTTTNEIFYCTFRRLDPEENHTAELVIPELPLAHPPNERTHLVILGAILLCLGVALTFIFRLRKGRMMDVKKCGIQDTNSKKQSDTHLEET

| Binder | MFI at 33.3 nM |
| --- | --- |
| B1 | 3030 MFI |
| B2 | 3050 MFI |
| B3 | 6460 MFI |
| B4 | 2610 MFI |
| B5 | 4880 MFI |
| B6 | 5660 MFI |
| B7 | 6640 MFI |

What follows are binders tested against T5, CD28 (endogenously expressed on Jurkat/IL2 reporter cells) (human, UniProt P10747 19-220) (assay: flow cytometry, Jurkat/IL2 reporter cells (endogenous CD28), PE anti-human Fc).
T5 construct: Endogenous CD28 of Jurkat cells; also called human CD28

| Binder | MFI at 33.3 nM |
| --- | --- |
| B8 | 303 MFI |
| B9 | 314 MFI |

These binders were tested against T6, human PD-L1 (human, UniProt Q9NZQ7 19-290) (assay: flow cytometry, CHO cells stably expressing PD-L1).
T6 construct: also called huPD-L1; CD274
T6 sequence (Q9NZQ7 19-290): as above

| Binder | MFI at 33.3 nM |
| --- | --- |
| B10 | 20000 MFI |
| B11 | 19000 MFI |

These binders were tested against T7, human CTLA4 on CHO cells (human, UniProt P16410 36-223) (assay: flow cytometry, CHO cells stably expressing CTLA4).
T7 construct: whole, on cells; CHO cells stably expressing CTLA4; also called huCTLA4
T7 sequence (P16410 36-223): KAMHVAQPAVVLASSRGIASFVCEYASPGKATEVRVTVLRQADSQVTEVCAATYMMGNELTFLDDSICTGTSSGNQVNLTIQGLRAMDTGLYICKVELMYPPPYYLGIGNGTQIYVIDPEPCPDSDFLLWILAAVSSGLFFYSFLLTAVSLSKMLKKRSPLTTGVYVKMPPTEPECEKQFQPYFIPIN

| Binder | MFI at 33.3 nM |
| --- | --- |
| B12 | 23300 MFI |
| B2 | 28800 MFI |
| B13 | 31200 MFI |
| B5 | 24600 MFI |
| B7 | 20600 MFI |

The binders below were run against T8, human PD-L1 (full-length, expressed on CHO cells) (human, UniProt Q9NZQ7 19-290) (assay: flow cytometry, CHO cells expressing huPD-L1, PE anti-human Fc).
T8 construct: also called huPD-L1; CD274
T8 sequence (Q9NZQ7 19-290): as the sequence (Q9NZQ7 19-290) above

| Binder | MFI at 33.3 nM |
| --- | --- |
| B14 | 62100 MFI |
| B15 | 47900 MFI |
| B16 | 67100 MFI |

Each binder was assayed against T1, TIGIT (assay: flow cytometry, Fc fusion at 100 nM, TIGIT-transfected cells).

| Binder | MFI at 100 nM |
| --- | --- |
| B17 | 2660 MFI |
| B18 | 1930 MFI |
| B19 | 2290 MFI |
| B20 | 2970 MFI |
| B21 | 1870 MFI |
| B22 | 2860 MFI |
| B23 | 1990 MFI |
| B24 | 2670 MFI |
| B25 | 1940 MFI |
| B26 | 2290 MFI |

These binders were tested against T2, CD226 (assay: flow cytometry, Fc fusion at 100 nM, CD226-transfected cells).

| Binder | MFI at 100 nM |
| --- | --- |
| B17 | 2600 MFI |
| B18 | 2000 MFI |
| B19 | 2020 MFI |
| B20 | 3170 MFI |
| B21 | 1900 MFI |
| B22 | 5940 MFI |
| B23 | 2040 MFI |
| B24 | 2250 MFI |
| B25 | 1910 MFI |
| B26 | 2390 MFI |

These binders were tested against T9, CD28 on Jurkat/IL2 reporter cells (human, UniProt P10747 19-220) (assay: flow cytometry, Jurkat cells (CD28)).
T9 construct: whole, on cells; Endogenous CD28 of Jurkat cells; also called Jurkats (CD28)

| Binder | MFI at 33.3 nM |
| --- | --- |
| B12 | 23.7 MFI |
| B1 | 582 MFI |
| B2 | 274 MFI |
| B3 | 841 MFI |
| B13 | 99.4 MFI |
| B4 | 44.6 MFI |
| B6 | 413 MFI |

The binders below were run against human CD28 (human, UniProt P10747 19-220) (assay: flow cytometry, Jurkat cells (CD28)).

| Binder | MFI at 33.3 nM |
| --- | --- |
| B10 | 15.6 MFI |
| B27 | 31 MFI |

These binders were tested against T3, CD96 (assay: flow cytometry, Fc fusion at 100 nM, CD96-transfected cells).

| Binder | MFI at 100 nM |
| --- | --- |
| B17 | 1800 MFI |
| B18 | 1650 MFI |
| B19 | 1820 MFI |
| B20 | 2360 MFI |
| B21 | 1610 MFI |
| B22 | 1530 MFI |
| B23 | 1710 MFI |
| B24 | 1630 MFI |
| B25 | 1630 MFI |
| B26 | 1580 MFI |

These binders were tested against T10, human CTLA4 (full-length, expressed on CHO cells) (human, UniProt P16410 36-223) (assay: flow cytometry, CHO cells expressing huCTLA4, PE anti-human Fc).
T10 construct: also called huCTLA4
T10 sequence (P16410 36-223): as the sequence (P16410 36-223) above

| Binder | MFI at 33.3 nM |
| --- | --- |
| B14 | 28900 MFI |
| B15 | 47600 MFI |
| B8 | 3560 MFI |
| B9 | 2950 MFI |
| B16 | 311000 MFI |
